Assay results from patent US20190105378.

Target: FLAG-TEV recognition sequence-granzyme B AA21-240 fusion whose recognition site (SEQ ID NO: 6) has a G instead of Q, P10144
Sequence (P10144 whole entry, looked up, the tested form may be a part): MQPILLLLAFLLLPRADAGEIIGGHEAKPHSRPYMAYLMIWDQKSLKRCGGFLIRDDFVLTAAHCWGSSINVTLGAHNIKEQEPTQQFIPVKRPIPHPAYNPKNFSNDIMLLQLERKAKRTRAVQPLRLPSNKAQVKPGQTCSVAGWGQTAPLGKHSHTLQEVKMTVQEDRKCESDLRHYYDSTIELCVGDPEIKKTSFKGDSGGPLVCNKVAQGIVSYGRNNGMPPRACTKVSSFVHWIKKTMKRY

B1: tobacco etch virus protease with N-terminal FLAG sequence (product of plasmid pSTdna 1023) (protein)
chain: MDYKDDDDKGDYKDDDDKGGGTGESLFKGPRDYNPISSTICHLTNESDGHTTSLYGIGFGPFIITNKHLFRRNNGTLLVQSLHGVFKVKNTTTLQQHLIDGRDMIIIRMPKDFPPFPQKLKFREPQREERICLVTTNFQTKSMSSMVSDTSCTFPSSDGIFWKHWIQTKDGQCGSPLVSTRDGFIVGIHSASNFTNTNNYFTSVPKNFMELLTNQEAQQWVSGWRLNADSVLWGGHKVFMSKPEEPFQPVKEATQLMNELVYSQ
- cleavage by TEV: no cleavage by TEV takes place (not shown)
